This test addresses T1, Tsa1 (S. cerevisiae 2-Cys peroxyredoxin) (S. cerevisiae, UniProt P34760 2-196).
T1 construct: Endogenous yeast protein after H2O2 treatment of the cells; also called Tsa1 protein
T1 sequence (looked up): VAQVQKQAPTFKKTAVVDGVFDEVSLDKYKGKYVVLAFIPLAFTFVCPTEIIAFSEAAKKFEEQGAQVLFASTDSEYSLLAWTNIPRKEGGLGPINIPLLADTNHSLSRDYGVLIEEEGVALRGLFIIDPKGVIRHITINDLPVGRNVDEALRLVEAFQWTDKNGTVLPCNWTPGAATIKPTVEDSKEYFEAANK
In words: Western blot of Srx1-HA after nonreducing/reducing SDS-PAGE (FIG. 7a). As for the experimental part: FIG. 7 illustrates the interaction between Tsa1 and Srx1 in a covalent (disulfide bridge) and noncovalent manner; FIG. 7a: Western blotting of the HA-tagged Srx1 protein (lanes 1, 2 and 3) or of HA-tagged Srx1^C84S (lane 4) expressed in a wild-type strain (WT) (lanes 1, 2, 4) or in Δtsa1 cells (lane 3) treated for 15 min with H₂O₂ (500 μM), after SDS-PAGE electrophoresis carried out under reducing (R) (lane 2) or nonreducing (NR) (lanes 1, 3, 4) conditions; FIG. 7b: the proteins copurified with the Srx1 tagged with 6His (lanes 2, 4) or the untagged Srx1 (lanes 1, 3) under nonreducing conditions are separated by SDS-PAGE under nonreducing (lanes 1, 2) or reducing (lanes 3, 4) conditions and visualized by Coomassie blue staining. The protein bands are identified by MALDI-TOF mass spectrometry as indicated;
(A) Cells containing a tagged (HA) copy of the Srx1 protein are treated with 500 μM of H₂O₂ for 15 minutes. […]
In general terms: Immunoblotting shows a protein as a band on a membrane.

B1: Srx1-HA (S. cerevisiae Srx1 with two HA epitopes at the C-terminal) (enzyme, not shown: small tags and cut ends)
chain: MSLQSNSVKPTEIPLSEIRRPLAPVLDPQKIDAMVATMKGIPTASKTCSLEQAEAAASAGELPPVDVLGVRVKGQTLYYAFGGCHRLQAYDRRARETQNAAFPVRCRVLPATPRQIRMYLGSSLDIE
modifications: Two HA epitopes fused at the C-terminal of Srx1 (letters not given, left out). In the assay Cys84 forms an intermolecular disulfide bridge with Tsa1.
notes: also called HA-tagged Srx1 protein
As to B1, the binding result is recorded as “binds”.
